The target in experiment [1] is mouse EphA2 recombinant protein (Fc chimera, R&D Systems, cat#639-A2) (mouse) (UniProt Q03145). Nature of the experiment: end-point titration ELISA on mEphA2.
For experiment [2], the target named is human EphA2 recombinant protein (purified human EphA2 extracellular domain) (human) (UniProt P29317). Nature of the experiment: end-point titration ELISA on huEphA2.
For experiment [3], the target named is human EphA2 receptor expressed on cells (HEK293-EphA2, CHO-EphA2, PC-3) (human) (UniProt P29317). Nature of the experiment: FACS on CHO cells transfected with human EphA2.
human EphA2 receptor expressed on cells (HEK293-EphA2, CHO-EphA2, PC-3) (human), sequence (P29317 24-976): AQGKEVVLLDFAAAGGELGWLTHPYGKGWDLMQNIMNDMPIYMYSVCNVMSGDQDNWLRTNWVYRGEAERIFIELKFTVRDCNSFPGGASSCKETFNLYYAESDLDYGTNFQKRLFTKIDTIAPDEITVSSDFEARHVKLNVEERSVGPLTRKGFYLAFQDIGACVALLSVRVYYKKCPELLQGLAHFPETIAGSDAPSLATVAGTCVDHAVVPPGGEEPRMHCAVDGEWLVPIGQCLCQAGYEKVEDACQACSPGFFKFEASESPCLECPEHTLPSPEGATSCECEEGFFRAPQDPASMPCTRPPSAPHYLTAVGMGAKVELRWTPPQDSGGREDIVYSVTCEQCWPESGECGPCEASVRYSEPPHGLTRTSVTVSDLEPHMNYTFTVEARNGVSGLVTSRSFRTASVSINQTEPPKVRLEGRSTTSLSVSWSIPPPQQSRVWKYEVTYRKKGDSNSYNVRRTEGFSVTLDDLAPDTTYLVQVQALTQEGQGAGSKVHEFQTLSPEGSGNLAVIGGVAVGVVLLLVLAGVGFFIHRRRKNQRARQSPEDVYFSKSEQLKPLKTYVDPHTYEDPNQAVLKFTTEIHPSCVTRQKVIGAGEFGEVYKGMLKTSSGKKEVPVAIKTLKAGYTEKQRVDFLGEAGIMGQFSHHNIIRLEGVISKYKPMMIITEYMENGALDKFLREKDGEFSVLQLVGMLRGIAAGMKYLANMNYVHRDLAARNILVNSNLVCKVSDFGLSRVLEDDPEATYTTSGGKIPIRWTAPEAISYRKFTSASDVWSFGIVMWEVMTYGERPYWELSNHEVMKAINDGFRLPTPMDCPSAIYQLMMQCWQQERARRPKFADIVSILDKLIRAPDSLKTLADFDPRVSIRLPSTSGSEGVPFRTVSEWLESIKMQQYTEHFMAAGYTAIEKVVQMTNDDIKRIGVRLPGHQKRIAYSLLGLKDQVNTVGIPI
Experiment [4] deals with human EphA2 recombinant protein (purified human EphA2 extracellular domain) (human) (UniProt P29317). Nature of the experiment: SPR, Biacore 3000, immobilized huEphA2 extracellular domain, KDequilibrium.
The target of experiment [5] is mouse EphA2 recombinant protein (Fc chimera, R&D Systems, cat#639-A2) (mouse) (UniProt Q03145). Kind of experiment: BLI, Octet Red, biotinylated mEphA2 on streptavidin sensors, steady state fit (column head prints EC50, title KD).
Experiment [6] concerns the target human EphA2 recombinant protein (purified human EphA2 extracellular domain) (human) (UniProt P29317). Kind of experiment: BLI, Octet Red, biotinylated huEphA2 on streptavidin sensors, steady state fit (column head prints EC50, title KD).
Experiment [7] has the same target. Nature of the experiment: SPR, Biacore 3000, immobilized huEphA2 extracellular domain, KDkinetic.
For experiment [8] the target is unchanged. Nature of the experiment: SPR, Biacore 3000, immobilized huEphA2 extracellular domain.

human EphA2 recombinant protein (purified human EphA2 extracellular domain) (human), sequence (P29317 24-537): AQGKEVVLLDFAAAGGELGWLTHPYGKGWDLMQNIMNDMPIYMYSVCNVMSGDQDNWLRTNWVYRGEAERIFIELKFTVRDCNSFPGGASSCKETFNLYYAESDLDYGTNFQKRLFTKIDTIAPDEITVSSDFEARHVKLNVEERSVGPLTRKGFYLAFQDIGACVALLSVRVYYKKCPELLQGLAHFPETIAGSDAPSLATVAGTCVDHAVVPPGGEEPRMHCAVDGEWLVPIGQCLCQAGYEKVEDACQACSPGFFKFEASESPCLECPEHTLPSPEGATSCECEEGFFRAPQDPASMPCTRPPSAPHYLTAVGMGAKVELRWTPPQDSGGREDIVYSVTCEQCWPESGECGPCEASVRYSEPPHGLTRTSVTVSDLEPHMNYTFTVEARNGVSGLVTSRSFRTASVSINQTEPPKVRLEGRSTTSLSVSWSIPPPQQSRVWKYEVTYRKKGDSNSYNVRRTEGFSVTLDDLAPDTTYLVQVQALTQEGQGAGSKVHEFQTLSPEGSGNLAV
mouse EphA2 recombinant protein (Fc chimera, R&D Systems, cat#639-A2) (mouse), sequence (Q03145 26-535, change not shown): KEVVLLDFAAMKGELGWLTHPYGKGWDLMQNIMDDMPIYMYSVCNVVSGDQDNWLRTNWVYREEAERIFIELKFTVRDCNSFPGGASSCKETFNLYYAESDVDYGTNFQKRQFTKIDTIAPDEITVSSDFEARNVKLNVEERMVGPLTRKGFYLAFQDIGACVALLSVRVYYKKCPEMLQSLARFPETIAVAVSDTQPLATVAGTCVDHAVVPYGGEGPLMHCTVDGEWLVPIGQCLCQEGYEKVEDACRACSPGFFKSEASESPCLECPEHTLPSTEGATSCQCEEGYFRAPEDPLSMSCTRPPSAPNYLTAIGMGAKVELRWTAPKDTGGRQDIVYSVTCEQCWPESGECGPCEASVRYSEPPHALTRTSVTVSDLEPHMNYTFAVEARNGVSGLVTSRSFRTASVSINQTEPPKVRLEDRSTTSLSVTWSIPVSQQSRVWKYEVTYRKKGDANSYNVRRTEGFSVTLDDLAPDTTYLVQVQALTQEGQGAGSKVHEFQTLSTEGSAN

B1: B6 modified CH2 domain (affinity matured, loop 1 PYLHDD, loop 2 of E10) (designed binder)
chain: GPSVFLFPPKPKDTLMISRTPEVTCVVVDPYLHDDEVKFNWYVDGAEVHHAQTKPRQYDPLYGYRVVSVLTVLHQDWLNGKEYKCKVSNKALPAPIEKTISKAK
For the molecule B1, the EC50 in experiment [1] was determined as 3.5 nM; in experiment [2], 6.54 nM; in experiment [3] it was 151 nM. For the same molecule, the Kd is 56 nM in experiment [4], 30 nM in experiment [5], 39 nM in experiment [6] and 69 nM in experiment [7]. In experiment [8], the koff was 0.0496 s⁻¹. For the same molecule, the kon in experiment [8] came out at 716000 M⁻¹ s⁻¹.

These data come from patent US20170306032A1.
